In article PMC8746622, “Purification, Characterization, and Structural Studies of a Sulfatase from Pedobacter yulinensis” (Molecules, 2021):
One block for each molecule: values may come before it.

Legend:
[1] = biological target: Pedobacter yulinensis sulfatase (PyuS), recombinant, without the putative N-terminal signal peptide, C-terminal His6-tag (Pedobacter yulinensis); assay: SEC; HiLoad 16/600 Superdex 200 pg, 10 mM Tris, 150 mM sodium chloride, pH 8.0, 1.2 mL/min, 4 °C; molecular weights of the two peaks from SEC MW standards; monomer and dimer
purified protein = substrate: Cc1cc(=O)oc2cc(OS(=O)(=O)O)ccc12; assay: purified protein; format: biochemical, Pedobacter yulinensis; conditions: 25 mM Bis-Tris pH 6.5, 1.0 mM CaCl2, room temperature, SEC monomer

percent of soluble protein as homodimer [1]: 10%
stoichiometry N [1]: 2
Molecule: Pedobacter yulinensis sulfatase (PyuS), recombinant, without the putative N-terminal signal peptide, C-terminal His6-tag (enzyme)

B1: PyuS (Pedobacter yulinensis) (protein)
chain: QGSRKPNIIFIMADDLGWGELGSYGNTFNETPNLDRLSAQGMRFTQAYAAAPVCSPTRASIMTGQYPARVGITDFLPEDEKTDRWLDPTKYVTLNEALSASGYHTGIVGKWHLDTDFKLNKGGPKAHGFNEVIGTESEYIADGDYFFPYSKIASFDKGTANEYLTDRQCAEANAFITRNREKPFFLYLSLYSVHTRLEAPVQLVEKYKQKFDQKYGTGKAEQFFGANNVRHESAQRDNPWLAAMLESIDTGVGGIMKTLRETGLAENTIIVFFSDNGGAGKAGNNAHLRAGKTWLYEGGIREPLIVSWPGKIKGNTVNDNPVTSLDFYPTFLAAAGGKPTGGRLDGHNLMPLLRGGRASGRPLFWHYPSETGKWVNRMSSAVREGNYKLLEFYNNPRLELYDLQNDPSESHNLATDRPAETARLKKLLEDWKKEVNAEAPHLARKEKKKP
notes: signal peptide (native residues 2-24) removed; C-terminal GSHHHHHH tag kept; expressed in E. coli with M. tuberculosis FGE (active-site Cys converted to formylglycine, FGly55); 459 residues, 51,320 Da; SEC monomer
Km (purified protein): 1890 µM
kcat (purified protein): 0.00983 s⁻¹
